What was measured:
[1] = target: OmpR (UniProt P0AA16); test: SEC; oligomeric state of OmpR alone under acidic conditions; Hiload 16/60 Superdex 75 pg for OmpR; OmpR buffer exchanged into 20 mM Tris, 200 mM NaCl
[2] = target: EnvZc C277Y (S. Typhimurium) (UniProt P08982); test: SEC; gel filtration profiles of EnvZc, EnvZc C277Y, OmpR, (OmpR + EnvZc) and (OmpR + EnvZc C277Y); Superose 12 10/300 GL for EnvZc, AKTA FPLC, 0.5 ml/min, 'suitable buffers'; fractions analysed by SDS-PAGE
[3] = target: T1, EnvZc ( (S. Typhimurium or E. coli …, UniProt P08982 1-450)); test: as above; settings: both partners purified
T1 construct: EnvZ sensor histidine kinase, cytoplasmic domain (EnvZc); also called wild-type EnvZc; cytoplasmic domain of EnvZ
T1 sequence: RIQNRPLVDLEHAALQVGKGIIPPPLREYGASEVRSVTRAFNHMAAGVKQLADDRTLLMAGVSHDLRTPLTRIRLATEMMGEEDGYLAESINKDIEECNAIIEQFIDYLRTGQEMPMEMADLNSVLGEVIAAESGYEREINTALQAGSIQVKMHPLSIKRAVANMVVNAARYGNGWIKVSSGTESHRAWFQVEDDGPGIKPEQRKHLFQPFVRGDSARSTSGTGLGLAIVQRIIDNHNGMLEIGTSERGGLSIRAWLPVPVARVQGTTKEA

For “OmpR (from UniProt P0AA16 1-239) (natural protein)”, the stoichiometry N [1] was 2.

“EnvZc C277Y (from UniProt P08982 1-450) (domain or fragment)” gave a stoichiometry N [2] of 2.

B1: OmpR (natural protein)
chain: MQENYKILVVDDDMRLRALLERYLTEQGFQVRSVANAEQMDRLLTRESFHLMVLDLMLPGEDGLSICRRLRSQSNPMPIIMVTAKGEEVDRIVGLEIGADDYIPKPFNPRELLARIRAVLRRQANELPGAPSQEEAVIAFGKFKLNLGTREMFREDEPMPLTSGEFAVLKALVSHPREPLSRDKLMNLARGREYSAMERSIDVQISRLRRMVEEDPAHPRYIQTVWGLGYVFVPDGSKA
notes: OmpR, response regulator of the EnvZ-OmpR two-component system; The unphosphorylated protein was used in gel filtration; also called His-OmpR; source: E. coli BL21 (DE3), from pET15b, purified
For B1, the “stoichiometry N” value [3] was 2 OmpR molecules per EnvZc dimer.
